Assay: yeast display, Sf9 membrane polyspecificity reagent, FACS + sequencing; frameworks hold sequencing errors
In short: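 Galactose induction of a Saccharomyces cerevisiae BJ5465 synthetic nanobody display library ran 36–48 hours. The cells were then stained for 1 hour at 4 °C with 10% biotinylated, detergent-solubilized Sf9 membrane reagent, pulled down on streptavidin microbeads and FACS-sorted into low and high (top ~1%) gates on expression and reagent-binding fluorescence. Labels for polyreactivity follow the gate of origin.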

Which “polyreactivity (PSR sort gate)” value does the source give for “QVQLVESGGGLVQAGGSLRLSCAASGSIFDYNGMGWYRQAPGKERELVAAISSGGSTNYADSVKGRFTISRDNAKNTVYLQMNSLKPEDTAVYYCAAVGRAKYYYWGQGTQVTVSS” here?
The value was “low polyreactivity”.

Which “polyreactivity (PSR sort gate)” value does the source give for “QVQLVESGGGLVQAGGSLRLSCAASGSIFDYYAMGWYRQAPGKERELVAAISWRGGRTYYADSVKGRFTISRDNAKNTVYLQMNSLKPEDTAVYYCAAYFQRSGFSFRLRGQGTQVTVSS” here?
Its value is “high polyreactivity”.

For “QVQLVESGGGLVQAGGSLRLSCAASGSIFDYYAMGWYRQAPGKERELVAAISWSGGSTYYADSVKGRFTISRDNAKNTVYLQMNSLKPEDTAVYYCAAEYYGGELDYWGQGTQVTVSS”, which “polyreactivity (PSR sort gate)” value is on record?
Its value is “low polyreactivity”.

With “QVQLVESGGGLVQAGGSLRLSCAASGSIFDYYAMGWYRQAPGQERELVAAISVRGGSTYYADSVKGRFTISRDNANNTVYLHKNSLKPEDTAVYYCAADYAYNKYLSVEYWGQGTQVTVSS” as the sequence, how does the “polyreactivity (PSR sort gate)” value read?
Its value is “low polyreactivity”.

Which “polyreactivity (PSR sort gate)” value does the source give for “QVQLVESGGGLVQAGGSLRLSCAASGSIFDYYTMGWYRQAPGKERELVATIRSGDSTNYADSVKGRFTISRDNAKNTVYLQMNSLIPEDTAVYYCAADDGAYPTLYDYWGQGTQVTVST” here?
Its value is “low polyreactivity”.

For “QVQLVESGGGLVQAGGSLRLSCAASGSIFDYYTMGWYRQAPGKEREWVAAITRSGGRTYYADSVKGRFTISRDNAKNTVYLQMNSLKPEDTAVYYCATRAVSRFGNGPYDYWGQGTQVTVSS”, which “polyreactivity (PSR sort gate)” value is on record?
The value was “high polyreactivity”.

Which “polyreactivity (PSR sort gate)” value does the source give for “QVQLVESGGGLVQAGGSLRLSCAASGSIFEEYALGSSRQAPGKERELVAAISRSGGSTYYADSVKGRFTISRDNAKNSVYLQMNSLKPEDTAVYYCAAEWVYGYRFGYWGQGTQVTVSS” here?
The value was “low polyreactivity”.

Which “polyreactivity (PSR sort gate)” value does the source give for “QVQLVESGGGLVQAGGSLRLSCAASGSIFEGNGMGWYRPAPGKERELVAAITFRSGSTYYADSVKGRFTISRDNAKNTVYLQMNSLKPEDTAVYYCAADEYYQVSAYDYWGQGTQVTVSS” here?
Its value is “low polyreactivity”.

With “QVQLVESGGGLVQAGGSLRLSCAASGSIFEGNSMGWYRQAPGKERELVAAISRRGGRTYYADSVKGRFTISRDNAKKTVFLQMNSLKPEDTAVYYCNALYFRVGRYQTYSDKFDYWGQGTQVTVSS” as the sequence, how does the “polyreactivity (PSR sort gate)” value read?
Its value is “high polyreactivity”.

For “QVQLVESGGGLVQAGGSLRLSCAASGSIFEGYAMGWYRQAPGKERELVAVITTSGGDTYYADSVKGRFTISRDNAKNTVYLQMNSLKPEDTAVYYCNAADAVSDYPDFHIYDYWGQGTQVTVSS”, which “polyreactivity (PSR sort gate)” value is on record?
The value was “low polyreactivity”.

For “QVQLVESGGGLVQAGGSLRLSCAASGSIFEGYVMGWYRQAPGKERELVATISFSGGSTYYADSVKGRFTISRDNAKNTVYLQMNSLKPEDTAVYYCNALVYHTKGDYGYWGHGTQVTVSS”, which “polyreactivity (PSR sort gate)” value is on record?
The value was “low polyreactivity”.

With “QVQLVESGGGLVQAGGSLRLSCAASGSIFEGYVMGWYRQAPGKERELVATISFSGGSTYYADSVKGRFTISRDNAKNTVYLQMTSLKPEDTAVYFCNALVYHTKGDYGYWGQGTQVTVSS” as the sequence, how does the “polyreactivity (PSR sort gate)” value read?
Its value is “low polyreactivity”.

Which “polyreactivity (PSR sort gate)” value does the source give for “QVQLVESGGGLVQAGGSLRLSCAASGSIFEIYDMGWYRQAPGKERELVASITWSGGSTYYADSVKGRFTISRDNAKNTVYLQMNSLKPEDTAVYYCATDKLYGRTVRMDYWGQGTQVSVSS” here?
Its value is “low polyreactivity”.

For “QVQLVESGGGLVQAGGSLRLSCAASGSIFEPYAMGGYRQAPWTERELVAAIRVSGGSTYYADSVKGRFTISRDNAKNTVYLQMNSLKPEDTAVYYCGPDWWSRYYYWGQGTQVTVSS”, which “polyreactivity (PSR sort gate)” value is on record?
The value was “high polyreactivity”.

With “QVQLVESGGGLVQAGGSLRLSCAASGSIFEPYAMGWYRQAPGKERELVAAISWDVGRTYYADSVKGRFTISRDNAKNTVYLQMNSLKPEDTAVYYCAAEIAIDGYYKSWYDYWGQGTQVTVSS” as the sequence, how does the “polyreactivity (PSR sort gate)” value read?
The value was “high polyreactivity”.

For “QVQLVESGGGLVQAGGSLRLSCAASGSIFEPYVMGWYRQAPGKERELVAAIRQTGGSTYYADSVKGRFTISRDNAKNTVFLQMNSLKPEDTAVYYCNAKWYGWQRGTVKYDYWGQGTQVTVSS”, which “polyreactivity (PSR sort gate)” value is on record?
The value was “low polyreactivity”.

Which “polyreactivity (PSR sort gate)” value does the source give for “QVQLVESGGGLVQAGGSLRLSCAASGSIFEPYVMGWYRQAPGKERELVAVITSGSGRTYYADSVKGRFTISRDNAKNTVYLQMNSLKPEDTAVYYCNKAYLGYRYDLYDYWGQGTQVTVSS” here?
The value was “low polyreactivity”.

For “QVQLVESGGGLVQAGGSLRLSCAASGSIFERNAMGWYRQAPGKERELVAAISWSSARTYYADSVKGRFTISRDNAKNTVYLQMNSLKPEDTAVYYCAARVWNEGVRYDYWGQGTQVTVSS”, which “polyreactivity (PSR sort gate)” value is on record?
Its value is “high polyreactivity”.

With “QVQLVESGGGLVQAGGSLRLSCAASGSIFESYAMGLYRQAPGKERELVAALTSSGDSTYYADSVKGRFTISRDNAKNTVYLQMYSLNPEDTAVDYCAKRVPTYISTADWVSRYDYWGQGTQVTVSS” as the sequence, how does the “polyreactivity (PSR sort gate)” value read?
The value was “low polyreactivity”.

For “QVQLVESGGGLVQAGGSLRLSCAASGSIFEVNAMGWYRQAPGKERELVAGISNADSTNYADSVKGRFTISRDNAKNTVYLQMNSLKPEDTAVYYCATDLYRDHPKDLLGPEYDYWGQGTQVTVSS”, which “polyreactivity (PSR sort gate)” value is on record?
The value was “low polyreactivity”.

For “QVQLVESGGGLVQAGGSLRLSCAASGSIFEVYAMGWYRQAPGKERELVAAINYTGGSTYYADSVKGRFTISRDNAKNTVYLQMNSLKPEDTAVYYCAVPRGVASLQKVEFGYWGQGTQVTVSS”, which “polyreactivity (PSR sort gate)” value is on record?
The value was “low polyreactivity”.

With “QVQLVESGGGLVQAGGSLRLSCAASGSIFEYNAMGWYRQAPGKERELVAAISGNGGRTYYADSVKGRFTISRDNAKNTVYLQMNSLKPEDTAVYYCNAQTYYSTYKSTFYYWGQGTQVTVSS” as the sequence, how does the “polyreactivity (PSR sort gate)” value read?
The value was “high polyreactivity”.

For “QVQLVESGGGLVQAGGSLRLSCAASGSIFEYNAMGWYRQAPGKERELVAAISWSSGTTYYADSVKGRFTISRDNAKNTVYLQMNSLKPEDTAVYYCAAVRWYVPGDVGYWGQGTQVTVSS”, which “polyreactivity (PSR sort gate)” value is on record?
The value was “low polyreactivity”.

Which “polyreactivity (PSR sort gate)” value does the source give for “QVQLVESGGGLVQAGGSLRLSCAASGSIFEYNVMGWYRQAPGKERELVAAINSGGSTYYADSVKGRFTISRDNAKNTVYLQMNSLKPEDTAVYYCAARQRPNRYGYYYWGQGTQVTVSS” here?
The value was “high polyreactivity”.

With “QVQLVESGGGLVQAGGSLRLSCAASGSIFEYYTMGWYIQAPGKERELVAGISWSGGSSYYADSVKGRFTISRDNAKNTVYLQMNSLKPEDTAVYYCAAGRTGWYWDSGSTYRYGYGYWGQGTQVTVSS” as the sequence, how does the “polyreactivity (PSR sort gate)” value read?
Its value is “high polyreactivity”.

With “QVQLVESGGGLVQAGGSLRLSCAASGSIFFANAMGWYRQAPGKERELVAAITGSGDITYYADSVKGRFTISRDNAKNTVYLQMNSLKPEDTAVYYCAKRYIYVTHLRHPRYYYWGQGTQVTVSS” as the sequence, how does the “polyreactivity (PSR sort gate)” value read?
The value was “low polyreactivity”.

With “QVQLVESGGGLVQAGGSLRLSCAASGSIFFDYAMGWYRQAPGKERELVAAINSGGTTNYADSVKGRFTISRDNAKNTVYLQMIQPETGRYRGLLLQRLPGYLRWYRWYDYWGQGTQVSVSS” as the sequence, how does the “polyreactivity (PSR sort gate)” value read?
Its value is “low polyreactivity”.

Which “polyreactivity (PSR sort gate)” value does the source give for “QVQLVESGGGLVQAGGSLRLSCAASGSIFFDYAMGWYRQAPGKETELVAAMSSTGGSTYYADSVKGRFTISRDNSKNTVYLQMNSLIPEDTAVYYCNARYYSYSSPYDYWGEGTQVTVSS” here?
The value was “high polyreactivity”.

For “QVQLVESGGGLVQAGGSLRLSCAASGSIFFFNAMGWYRQAPGKEREFVAAITSSSGRTYYADSVKGRFTISRDNAKNTVYLQMNSLKPEDTAVYYCAAEGLDEGDYWGQGTQVTVSS”, which “polyreactivity (PSR sort gate)” value is on record?
The value was “low polyreactivity”.

Which “polyreactivity (PSR sort gate)” value does the source give for “QVQLVESGGGLVQAGGSLRLSCAASGSIFFKNVMGWYRQAPGKERELVAAITWSGGSTYYADSVKGRFTISRDNAKNTVYLQMNSLKPEDTAVYYCNARRSKGMYYWGQGTQVTVSS” here?
The value was “high polyreactivity”.

For “QVQLVESGGGLVQAGGSLRLSCAASGSIFFKYAMGWYRQAPGKEREMVAAITWSGGRTYYADSVKGRFTISRDNAKNTVYLQMNSLKPEDTAVYYCNAYSIGVAAADDYWGQGTQVTVSS”, which “polyreactivity (PSR sort gate)” value is on record?
The value was “high polyreactivity”.

Which “polyreactivity (PSR sort gate)” value does the source give for “QVQLVESGGGLVQAGGSLRLSCAASGSIFFPYAMGWYRKAPGKERGLVAAISWRGGITYYADSVKGRFTISRDNAKNTVYLQMNSLKPADTAVYYCAADGPYTGDGALDYWGQGTQVTVSS” here?
The value was “high polyreactivity”.

Which “polyreactivity (PSR sort gate)” value does the source give for “QVQLVESGGGLVQAGGSLRLSCAASGSIFFRNAMGRYRPAPGKERELVAAISKSGGSTYYADSVKGRFTISRDNAKNTVYLQMNSLKPEDTAVYYCAAERTFLYWAYDYWGQGTQVTVSS” here?
Its value is “high polyreactivity”.

Which “polyreactivity (PSR sort gate)” value does the source give for “QVQLVESGGGLVQAGGSLRLSCAASGSIFFRNAMGWYRQAPGKERELVAAITWNGGSTYYADSVKGRFTISRDNAKNTVYLQMNSLKPEDTAVYYCNKYYYYRDSGYWGQGTQVTVSS” here?
Its value is “high polyreactivity”.

With “QVQLVESGGGLVQAGGSLRLSCAASGSIFFRYALAWYRQAPGKERELVASITSGGSTYYADSVKGRFTISRDNAKNTVYLQMNSLKPEDTAVYYCNALPYRYRRYDYWGQGTQVTVSS” as the sequence, how does the “polyreactivity (PSR sort gate)” value read?
The value was “low polyreactivity”.

For “QVQLVESGGGLVQAGGSLRLSCAASGSIFFRYAMGWYRQAPGKERELVATIRSSGGRTHYADSVKGRFTISRDNAKNTVYLQMHSLKPEDTAVYYCHYGVYQYPQDYDYWGQGTQVTVSS”, which “polyreactivity (PSR sort gate)” value is on record?
The value was “low polyreactivity”.

Which “polyreactivity (PSR sort gate)” value does the source give for “QVQLVESGGGLVQAGGSLRLSCAASGSIFFRYAMGWYRQAPGKVRELVANISSGGGNTYYADSVKGRFTISRDNAKNTVYLQMNSLKPEDTAVYYCARRLATRGHTYDYWGQGTQVTVSS” here?
The value was “low polyreactivity”.

Which “polyreactivity (PSR sort gate)” value does the source give for “QVQLVESGGGLVQAGGSLRLSCAASGSIFFSNAMGWYSPAPGKEREIVAGIRSGGITNYADSVKGRFTISRDNAKNTVYLEMNSLKPEDTAVYYCAKLNDHGRYAYAFDYWGQGTQVTVSS” here?
Its value is “low polyreactivity”.

Which “polyreactivity (PSR sort gate)” value does the source give for “QVQLVESGGGLVQAGGSLRLSCAASGSIFFSNVMGWYRQAPGKERELVAAIRWSGDSTYYADSVKRRFTISRDNAKNTVYLQMNSLKPEDTAVYYCARDVYGSVSVSGYYYWGQGTQVTVSA” here?
The value was “low polyreactivity”.

For “QVQLVESGGGLVQAGGSLRLSCAASGSIFFSYAMGWYRQAPGKEREFVAAINSDDASTYADSVKGRFTISRDNAKNTVYLQMNSLKPEDTAVYYCAASFLWSWYDYWGQGTQVTVSS”, which “polyreactivity (PSR sort gate)” value is on record?
Its value is “low polyreactivity”.

For “QVQLVESGGGLVQAGGSLRLSCAASGSIFFSYAMGWYRQARGKERELVAAISTSGGNTYYADSVKGRFTISRDNAKNTVYLQMNSLKPEDTAVYYCNALYIYFYNYLTMDYWGQGTQVTVSS”, which “polyreactivity (PSR sort gate)” value is on record?
Its value is “low polyreactivity”.

— the nanobody polyreactivity screen of Harvey et al. (2022)
